According to US7943319B2, “Utility of RET mutant in diagnosis and treatment of melanoma” (John Wayne Cancer Institute, priority 2007, dated 2011):
Entries after “also recorded” stand apart in the source; their conditions may differ.

Tests used:
[1] = tested on: ME7 cells (RETmt/BRAFwt); assay: Blocking assay of GDNF-induced proliferation; assay type: cell-based, human; conditions: pre-treated 60 min with 10 μM PD98059 or 100 nM wortmannin, then 25 ng/ml GDNF for 72 hrs
Description: (§1) Cell proliferation 48 and 72 hrs after GDNF treatment (5, 25 or 50 ng/ml, dissolved in water) in serum-free medium was analyzed by 3-(4,5-dimethylthiazol-2-yl)-2,5-diphenyltetrazolium bromide (MTT) and direct cell counting with a light microscope, respectively. MTT (0.4 mg/ml, Sigma-Aldrich, St. Louis, Mo.) was added into culture wells after washing with PBS. The converted dye was dissolved with DMSO 2 hrs after incubation at 37° C. and the absorbance was measured at a wavelength of 550 nm with a microplate reader (Bio-Rad). For cell counting, cells were harvested after washing with PBS and the number of cells was counted using a hemocytometer under a microscope. In blocking assays, cells were pre-treated with 10 μM of a MEK1 inhibitor, PD98059 (Cell Signaling Technology), or 100 nM of a PI3K inhibitor, wortmannin (Cell Signaling Technology), for 60 min before treatment of GDNF as indicated in the instructions from the company, and followed by 25 ng/ml of GDNF treatment for 72 hrs. To avoid the effect of the delivery agent on cells, PD98059 and wortmannin were dissolved in PBS, and the same amount of PBS was added to control (GDNF(−)) and GDNF-treated cells.

[2] = target: RET G691S mutant (RETmt), endogenous on melanoma cells (human) (UniProt P07949); assay: cell-based or functional assay
Sequence of RET G691S mutant (RETmt), endogenous on melanoma cells (human) (P07949 29-1114 G691S): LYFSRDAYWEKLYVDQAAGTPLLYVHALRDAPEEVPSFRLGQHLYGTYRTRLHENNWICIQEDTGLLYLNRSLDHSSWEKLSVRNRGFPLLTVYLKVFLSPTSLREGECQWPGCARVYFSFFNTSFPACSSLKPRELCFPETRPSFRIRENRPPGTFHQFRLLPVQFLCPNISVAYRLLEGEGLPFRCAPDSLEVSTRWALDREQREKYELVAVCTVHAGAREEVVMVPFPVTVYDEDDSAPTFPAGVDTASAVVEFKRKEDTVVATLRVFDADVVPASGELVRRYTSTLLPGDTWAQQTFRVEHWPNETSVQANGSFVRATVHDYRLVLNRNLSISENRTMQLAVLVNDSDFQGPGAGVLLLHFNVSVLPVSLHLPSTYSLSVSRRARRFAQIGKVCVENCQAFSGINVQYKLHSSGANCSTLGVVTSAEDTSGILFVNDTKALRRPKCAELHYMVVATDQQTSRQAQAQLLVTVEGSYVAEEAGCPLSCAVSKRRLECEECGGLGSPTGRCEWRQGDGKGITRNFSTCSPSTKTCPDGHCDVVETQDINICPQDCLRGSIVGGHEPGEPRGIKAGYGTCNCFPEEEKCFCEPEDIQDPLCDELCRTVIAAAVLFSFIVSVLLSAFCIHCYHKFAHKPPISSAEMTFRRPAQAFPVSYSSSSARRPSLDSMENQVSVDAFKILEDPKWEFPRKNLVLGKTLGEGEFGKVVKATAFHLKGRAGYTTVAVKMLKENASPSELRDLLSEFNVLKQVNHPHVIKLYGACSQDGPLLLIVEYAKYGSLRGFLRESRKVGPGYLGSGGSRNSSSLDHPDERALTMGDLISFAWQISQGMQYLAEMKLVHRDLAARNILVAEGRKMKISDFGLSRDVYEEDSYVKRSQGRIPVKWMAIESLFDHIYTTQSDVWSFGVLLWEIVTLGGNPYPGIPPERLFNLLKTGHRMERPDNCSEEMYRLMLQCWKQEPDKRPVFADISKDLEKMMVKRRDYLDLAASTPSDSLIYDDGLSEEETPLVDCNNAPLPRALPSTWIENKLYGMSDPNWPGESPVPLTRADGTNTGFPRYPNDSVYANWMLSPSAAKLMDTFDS

[3] = tested on: RETmt thyroid cancers; conditions: cited from earlier work
[4] = target: RET (Homo sapiens, UniProt P07949); conditions: cited from earlier work
Sequence of RET (P07949 29-1114): as the sequence (P07949 29-1114 G691S) above, with S663G counted along it

[5] = tested on: Akt; assay: Western blotting of phosphorylated Akt after GDNF; assay type: cell-based, human; conditions: 25 ng/ml GDNF
Description: (§2) Cells were washed twice with ice-cold phosphate-buffered saline (PBS) and dissolved in solubilizing buffer (pH 7.5, 20 mM Tris-HCL, 12.5 mM β-glycerophosphate, 2 mM EGTA, 10 mM NaF, 1 mM benzamide, 1% NP-40, 1 mM Na3VO4, 1× protease inhibitor mix) after treatment with 25 μg human recombinant GDNF (Chemicon International, Temecula, Calif.). Each aliquot of protein (10 μg) was subjected to Western blotting analysis. After electrophoresis on 12.5% polyacrylamide gels, the protein was transblotted to Hybond™-P (Amersham Life Sciences, Inc., Arlington Heights, Ill.) in transfer buffer (192 mM glycine, 25 mM Tris, 2.5 mM SDS, and 10% methanol). The blots were blocked with 5% non-fat dry milk, and then incubated with anti-ERK 1/2 rabbit polyclonal Ab, or anti-phosphorylated ERK 1/2 rabbit polyclonal Ab (1:1000, Phosphoplus® p44/42 MAP Kinase (Thr202/Tyr204) Antibody kit, Cell Signaling Technology, Danvers, Mass.), and then incubated with an horse radish peroxidase (HRP)-conjugated anti-rabbit IgG Ab (1:2000, Cell Signaling Technology). As for Western blotting of Akt, anti-Akt rabbit polyclonal Ab, or anti-phosphorylated Akt rabbit polyclonal Ab (1:500, Phosphoplus® Akt (Ser473) Antibody Kit, Cell Signaling Technology) and a secondary Ab, HRP-conjugated anti-rabbit IgG Ab (1:1000), were used. Subsequently, the blots were developed with ECL Plus Western blotting Detection system (GE Healthcare Life Sciences, Piscataway, N.J.) according to the manufacturer instructions.

[6] = tested on: melanoma cells (RETmt and RETwt); assay: Migration assay (Transwell chamber) with GDNF; assay type: cell-based, human; conditions: RETmt cells compared with RETwt cells; 5 or 25 ng/ml GDNF, 48 hrs
Description: Migration ability of the melanoma cells was determined with a modified technique using a Transwell® chamber with a microporous membrane (membrane diameter 6.5 mm, pore size 8 μm, CORNING, Corning, N.Y.) (29). Melanoma cells were seeded in the upper chamber with RPMI 1640 culture medium (Invitrogen) with 2% fetal bovine serum (FBS). The lower chamber contained RPMI 1640 culture medium with 2% FBS and 5 or 25 ng/ml of GDNF. The cells that migrated through the membrane and adhered to the bottom of lower chamber were fixed with 80% ethanol and stained with hematoxylin 48 hrs after incubation at 37° C. The number of stained cells was counted in a total of 5 fields under a microscope with 200× magnification. In blocking assays, cells were pre-treated with wortmannin (100 nM) for 60 min before treatment of GDNF as indicated in the instructions from the company and followed by treatment with 25 ng/ml GDNF for 48 hrs. To avoid the effect of the delivery agent on cells, wortmannin was dissolved in PBS, and the same amount of PBS was added to control (GDNF(−)) and GDNF-treated cells.

[7] = tested on: melanoma cells (ME1, ME7, ME3); assay: Actin polymers staining by Alexa Fluor 568 phalloidin; assay type: cell-based, human; conditions: 10 ng/ml GDNF, 48 hrs
Description: Melanoma cells were seeded in BD BioCoat™ CultureSlides (BD Biosciences, San Jose, Calif.). Cells were washed twice with PBS and fixed with 3.7% formaldehyde solution in PBS for 10 min at room temperature after a 48 hr incubation with GDNF (10 ng/ml) at 37° C. Fixed cells were stained with 1 U/200 μl of PBS Alexa Fluor® 568 phalloidin (Invitrogen) for 20 min at room temperature. After washing twice with PBS, actin polymers were observed using fluorescence microscopy with 400× magnification.

[8] = tested on: melanoma cells (RETmt and RETwt); assay: Cell proliferation by GDNF (MTT assay); assay type: cell-based, human; conditions: 48-hr exposure to GDNF, serum-free medium
Description: as §1

[9] = tested on: ERK1/2; assay: Western blotting of phosphorylated ERK1/2 after GDNF; assay type: cell-based, human; conditions: 25 ng/ml GDNF
Description: as §2

[10] = tested on: melanoma cells (RETmt and RETwt); assay: QCM Collagen-based Invasion Assay with GDNF; assay type: cell-based, human; conditions: RETmt cells compared with RETwt cells; 25 ng/ml GDNF, 60 hrs
Description: Invasion ability of the melanoma cells was analyzed using QCM™ Collagen-based Invasion Assay MILLIPORE, Billerica, Mass.), as described in previous reports (27, 29). Cells were seeded in the upper chamber with RPMI 1640 culture medium (Invitrogen) with 2% FBS containing GDNF. The lower chamber contained RPMI 1640 culture medium with 5% FBS and GDNF with same concentration as the upper chamber (25 ng/ml). Cells invading the collagen-coated membrane were fixed and stained 60 hrs after incubation at 37° C. using reagents provided by MILLIPORE, according to the manufacturer's instructions. Stained cells were dissolved with a provided reagent and measured at a 550 nm wavelength with a microplate reader (Bio-Rad). In the blocking assay, cells were pre-treated with 1 μg/ml of a goat anti-human polyclonal RET-specific Ab, which binds to the extracellular domain of RET (R&D Systems), or 1 μg/ml control goat IgG (Santa Cruz Biotechnology) as a control 60 min before treatment with GDNF and followed by treatment with 25 ng/ml GDNF for 60 hrs.

COc1cccc(-c2cc(=O)c3ccccc3o2)c1N [PD98059]
suppression of GDNF-induced proliferation [1]: significantly blocked; also recorded: completely suppressed

human recombinant GDNF (glial cell line-derived neurotrophic factor) (from UniProt P39905 78-211) (ligand)
suppression by RET siRNA of GDNF-induced cell proliferation in ME1 (MTT assay) [2]: > 80%

CNC(=O)c1cc(Oc2ccc(NC(=O)Nc3ccc(Cl)c(C(F)(F)F)c3)cc2)ccn1 [Sorafenib]
growth of RETmt thyroid cancers [3]: suppress growth | RET signaling [4]: can block | kinase activity of RET [4]: directly suppresses | lysosomal degradation of RET protein [4]: promotes

B1: GDNF: human recombinant GDNF (Chemicon International), major ligand of RET (protein)
chain: SPDKQMAVLPRRERNRQAAAANPENSRGKGRRGQRGKNRGCVLTAIHLNVTDLGLGYETKEELIFRYCSGSCDAAETTYDKILKNLSRNRRLVSDKVGQACCRPIAFDDDLSFLDDNLVYHILRKHSAKRCGCI
phosphorylation of Akt ([5]; ME1 (RETmt/BRAFmt), ME5 (RETmt/BRAFwt)): strongly phosphorylated | duration of phosphorylation of Akt ([5]; ME1, ME5): 60 min | time to strong phosphorylation of Akt after treatment ([5]; ME1, ME5): ≤ 15 min | phosphorylation of Akt ([5]; ME3 (RETwt/BRAFwt)): weak phosphorylation | migration after GDNF stimulation [6]: more vigorous | actin polymerization (filopodia) ([7]; RETmt cell lines ME1, ME7): induced intensely; also recorded: induced filopodia | actin polymerization (filopodia) ([7]; RETwt cell line ME3): no actin polymerization induced | cell proliferation on GDNF exposure ([8]; RETmt melanoma cells): enhanced proliferation | cell proliferation on GDNF exposure ([8]; RETwt melanoma cells): but not RETwt melanoma cells | phosphorylation of ERK1/2 ([9]; ME1 (RETmt/BRAFmt), ME7 (RETmt/BRAFwt)): more intense phosphorylation; also recorded: strongly phosphorylated | duration of phosphorylation of ERK1/2 ([9]; ME1, ME7): 60 min | time to strong phosphorylation of ERK1/2 after treatment ([9]; ME1, ME7): ≤ 15 min | phosphorylation of ERK1/2 ([9]; ME3 (RETwt/BRAFwt)): weak phosphorylation | invasion after GDNF stimulation [10]: more vigorous
